Experiment [1] deals with T1, PEAR1 ectodomain, monomeric biotinylated bait (human, UniProt Q5VY43 21-755, biotin (on the biotinylatable peptide tag)).
T1 chain: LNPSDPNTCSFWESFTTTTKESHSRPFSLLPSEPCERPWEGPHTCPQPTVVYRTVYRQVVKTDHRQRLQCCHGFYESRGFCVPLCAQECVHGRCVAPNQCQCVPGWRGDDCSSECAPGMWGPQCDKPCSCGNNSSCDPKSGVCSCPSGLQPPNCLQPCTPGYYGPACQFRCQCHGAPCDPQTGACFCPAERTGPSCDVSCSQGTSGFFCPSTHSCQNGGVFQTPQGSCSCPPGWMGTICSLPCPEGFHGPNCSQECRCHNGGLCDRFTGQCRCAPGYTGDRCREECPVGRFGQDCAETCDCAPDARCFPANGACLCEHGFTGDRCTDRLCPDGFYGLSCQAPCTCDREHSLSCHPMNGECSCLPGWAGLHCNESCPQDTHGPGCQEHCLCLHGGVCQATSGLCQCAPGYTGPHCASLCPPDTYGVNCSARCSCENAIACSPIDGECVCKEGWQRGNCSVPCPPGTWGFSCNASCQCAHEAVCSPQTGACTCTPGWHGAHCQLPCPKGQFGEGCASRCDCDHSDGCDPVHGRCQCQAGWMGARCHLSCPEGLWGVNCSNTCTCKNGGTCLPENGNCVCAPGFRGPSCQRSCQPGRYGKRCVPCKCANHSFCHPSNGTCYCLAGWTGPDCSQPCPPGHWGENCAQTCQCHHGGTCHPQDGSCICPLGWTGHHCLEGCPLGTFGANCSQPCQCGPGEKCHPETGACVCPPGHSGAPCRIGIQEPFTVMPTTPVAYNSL
The experiment in a line: SPR; kinetic analysis. In general terms: SPR reads the build-up and loss of mass on a sensor chip optically.

Experiment [2] addresses T2, PEAR1 ectodomain, monomeric biotinylated bait (human, UniProt Q5VY43 21-755, biotin (on the biotinylatable peptide tag)).
T2 construct: human platelet endothelium aggregation receptor 1 (PEAR1), whole ectodomain; also called PEAR1 bait; immobilized PEAR1; source: HEK293E, transient transfection, purified (Ni2+-NTA via His6)
T2 sequence (looked up): T1 chain
Put plainly: SPR; Biacore T100; PEAR1 immobilised; seven serial dilutions of FcεR1α-Cd4-His6 injected at 100 μl/min; kinetic analysis, 1:1 binding model. Conditions: both partners purified.

In experiment [3] the target is T2, PEAR1 ectodomain, monomeric …. Put plainly: SPR; Biacore T100; PEAR1 immobilised; gel-filtered monomeric FcεR1α-Cd4-His6 serially diluted and injected at 10 μl/min until equilibrium; reference-subtracted; equilibrium analysis. As to conditions: both partners purified.

B1: FcεR1α-Cd4-His6, purified monomeric soluble protein (receptor, human, UniProt P12319 26-205, looked up)
chain: VPQKPKVSLNPPWNRIFKGENVTLTCNGNNFFEVSSTKWFHNGSLSEETNSSLNIVNAKFEDSGEYKCQHQQVNESEPVYLEVFSDWLLLQASAEVVMEGQPLFLRCHGWRNWDVYKVIYYKDGEALKYWYENHNISITNATVEDSGTYYCTGKVWQLDYESEPLNITVIKAPREKYWLQ
notes: also called soluble FcεR1α-Cd4-His6; source: HEK293E, transient transfection, purified (His6), resolved by gel filtration just prior to use
Regarding B1, the koff (in general, the rate constant with which the complex falls apart) in experiment [1] worked out at 0.0788 s⁻¹. The stoichiometry N – broadly, a count of units in the complex or per binding partner – in experiment [2] amounted to 1. Also, in experiment [3], binding was put at a Kd of 27.4 ± 1.3 nM.

For the origin of these results see article PMC4424398, “A Human Platelet Receptor Protein Microarray Identifies the High Affinity Immunoglobulin E Receptor Subunit α (FcεR1α) as an Activating Platelet Endothelium Aggregation Receptor 1 (PEAR1) Ligand* ^([image sbox.jpg])” (Molecular & Cellular Proteomics : MCP, 2015).
